Experimental data reported in US20180016327A1 (Chugai, published 2018).
Positions count from the first letter of the chain named.

B1: CFP0011 11L 96F (antibody, V domains shown)
VH: QVQLVQSGAEVKKPGSSVKVSCKASGGTFSSYAISWVRQAPGQGLEWMGGIIPIFGTANYAQKFQGRVTITADESTSTAYMELSSLRSEDTAVYYCARDMSEFLGWSNYYSYPMDVWGQGTTVTVSS
VL: DIQMTQSPSSLSASVGDRVTITCRASQSIEDDLAWYQQKPGKAPKLLIYHASSLQSGVPSRFSGSGSGTDFTLTISSLQPEDFATYYCQQSDNSPFTFGQGTKVEIK
B2: CFP0021 (antibody, V domains shown)
VH: QVQLVESGGGLVQPGGSLRLSCAASGFTFSDHYMDWVRQAPGKGLEWVGRTRNKANSYTTEYAASVKGRFTISRDDSKNSLYLQMNSLKTEDTAVYYCARTGMMYWGIFDVWGQGTLVTVSS
VL: B1 VL with S53T, S91H, N93S, S94Y, F96L
notes: IgG format
B3: CFP0017 17L 32N (antibody, V domains shown)
VH: QVQLVQSGAEVKKPGSSVKVSCKASGGTFSSYAISWVRQAPGQGLEWMGGIIPIFGTANYAQKFQGRVTITADESTSTAYMELSSLRSEDTAVYYCARGGWWGGALDYWGQGTLVTVSS
VL: B1 VL with D32N, N93S, S94Y, F96L
B4: CFP0021 21L 31N (antibody, V domains shown)
VH: B2 VH
VL: B1 VL with D31N, S53T, S91H, N93S, S94Y, F96L
B5: CFP0011 11L 96L (antibody, V domains shown)
VH: B1 VH
VL: B1 VL with F96L
B6: CFP0021 21L 30S (antibody, V domains shown)
VH: B2 VH
VL: B1 VL with E30S, S53T, S91H, N93S, S94Y, F96L
B7: CFP0021 21L 30D (antibody, V domains shown)
VH: B2 VH
VL: B1 VL with E30D, S53T, S91H, N93S, S94Y, F96L
B8: CFP0021 21L 30H (antibody, V domains shown)
VH: B2 VH
VL: B1 VL with E30H, S53T, S91H, N93S, S94Y, F96L
B9: CFP0021 21L 30A (antibody, V domains shown)
VH: B2 VH
VL: B1 VL with E30A, S53T, S91H, N93S, S94Y, F96L
B10: CFP0021 21L 31A (antibody, V domains shown)
VH: B2 VH
VL: B1 VL with D31A, S53T, S91H, N93S, S94Y, F96L
B11: CFP0011 11L 96I (antibody, V domains shown)
VH: B1 VH
VL: B1 VL with F96I
B12: CFP0021 21L 31H (antibody, V domains shown)
VH: B2 VH
VL: B1 VL with D31H, S53T, S91H, N93S, S94Y, F96L
B13: CFP0011 11L 96H (antibody, V domains shown)
VH: B1 VH
VL: B1 VL with F96H
B14: CFP0011 11L 96P (antibody, V domains shown)
VH: B1 VH
VL: B1 VL with F96P
B15: CFP0011 11L 96W (antibody, V domains shown)
VH: B1 VH
VL: B1 VL with F96W

What follows are binders tested against T1, human C5 (human, UniProt P01031 19-673; P01031 678-1676, Beta and alpha chains are disulfide-linked and the protein is glycosylated.) (assay: Biacore, captured antibody, pH 7.4, 37 C;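 also: biacore binding response of anti-C5 antibody light chain variants captured on chip with human C5 injected, ACES running buffer containing 1.2 mM CaCl₂, parent light chain antibody set to 100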).
T1 construct: Either in-house recombinant C5 or plasma derived C5 (CALBIOCHEM) was used; also called recombinant human C5; plasma derived human C5

Binder | % binding (parent = 100)
B1 | 82.8%
B2 | 100%
B3 | 27%
B4 | 52.3%
B5 | 3.2%
B6 | 76.7%
B7 | 87.5%
B8 | 59.7%
B9 | 76.9%
B10 | 31.2%
B11 | 0.8%
B12 | 41.3%
B13 | 5.1%
B14 | -1.6%
B15 | 5.4%
